# T1: recombinant full-length fibulin-4 (mouse, UniProt Q9WVJ9 28-443)
# T1 construct: Fibulin-4, mouse, full length after the signal peptide; also called rfibulin-4; source: HEK 293 EBNA cells, stably expressed, purified from conditioned medium (streptactin-Sepharose)
# T1 sequence (looked up): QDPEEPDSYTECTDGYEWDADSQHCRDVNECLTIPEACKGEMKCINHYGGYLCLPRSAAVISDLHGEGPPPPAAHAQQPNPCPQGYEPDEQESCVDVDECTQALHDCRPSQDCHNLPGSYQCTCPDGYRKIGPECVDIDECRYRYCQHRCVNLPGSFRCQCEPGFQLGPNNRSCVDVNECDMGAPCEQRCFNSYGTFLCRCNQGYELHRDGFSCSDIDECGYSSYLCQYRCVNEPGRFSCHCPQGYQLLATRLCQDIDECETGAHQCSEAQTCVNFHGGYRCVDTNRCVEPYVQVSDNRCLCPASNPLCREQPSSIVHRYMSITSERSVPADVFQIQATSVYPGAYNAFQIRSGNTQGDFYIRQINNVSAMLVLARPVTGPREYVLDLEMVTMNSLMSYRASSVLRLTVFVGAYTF
# T2: recombinant full-length fibulin-5 (mouse, UniProt Q9WVH9 24-448)
# T2 construct: Fibulin-5, mouse, full length after the signal peptide; also called rfibulin-5; source: HEK 293 EBNA cells, stably expressed, purified from conditioned medium (streptactin-Sepharose)
# T2 sequence (looked up): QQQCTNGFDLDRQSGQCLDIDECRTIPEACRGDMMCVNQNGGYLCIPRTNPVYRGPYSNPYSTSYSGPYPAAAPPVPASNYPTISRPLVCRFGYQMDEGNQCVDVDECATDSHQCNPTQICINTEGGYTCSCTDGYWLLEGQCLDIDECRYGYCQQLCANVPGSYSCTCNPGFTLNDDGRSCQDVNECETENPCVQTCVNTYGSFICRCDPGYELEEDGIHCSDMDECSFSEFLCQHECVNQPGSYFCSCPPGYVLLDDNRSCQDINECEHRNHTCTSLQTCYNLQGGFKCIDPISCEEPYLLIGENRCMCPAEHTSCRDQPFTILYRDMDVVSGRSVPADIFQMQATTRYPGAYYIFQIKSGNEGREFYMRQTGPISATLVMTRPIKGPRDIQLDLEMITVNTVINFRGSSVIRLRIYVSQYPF
# What was measured:
# [1] = molecular target: rfibulin-4 and rfibulin-5 (mouse); assay: SPR; Ltbp-4L-2xStrep and Ltbp-4S-2xStrep after PNGase F digest under non-denaturing conditions, flown over rfibulin-4 and rfibulin-5 immobilized on a Biacore chip; response compared before and after deglycosylation; n=2
# [2] = molecular target: T1, recombinant full-length fibulin-4; assay: SPR; BIAcore2000; 570 RUs of rfibulin-4 or 390 RUs of rfibulin-5 amine-coupled to carboxymethyldextran hydrogel 500M chips; Ltbp-4L-2xStrep (0-320 nM) or Ltbp-4S-2xStrep (0-80 nM) flown over as analyte; 1:1 Langmuir fits, kobs plotted against concentration; apparent Kd = koff/kon; conditions: both partners purified
# [3] = molecular target: T2, recombinant full-length fibulin-5; assay: as above; conditions: both partners purified
percent increase of the SPR signal after deglycosylation (against Ltbp-4S-2xStrep before deglycosylation) [1] [%],Kd [2] [nM],koff [2] [s⁻¹],kon [2] [M⁻¹ s⁻¹],Kd [3] [nM],koff [3] [s⁻¹],kon [3] [M⁻¹ s⁻¹],Molecule
15 to 20,–,–,–,–,–,–,Ltbp-4S-2xStrep after deglycosylation with PNGase F under non-denaturing conditions (domain or fragment)
–,15.4,0.0108,700000,15.8,0.0158,1e+06,"Ltbp-4S-2xStrep (N-terminal fragment of mouse Ltbp-4S) (domain or fragment, UniProt Q8K4G1-2 27-211, looked up, N-linked glycosylation (shift after PNGase F), residue not given, the first 185 amino acids after the signal peptide (Arg27-Asp211); numbers count on: the short isoform Ltbp-4S; Cloned into a modified pCEP-Pu vector with a 3' 2xStrepII tag through NheI and XhoI; also called N-terminal Ltbp-4S; Ltbp-4S N-terminal fragment; source: HEK 293 EBNA cells, stably expressed, purified from conditioned medium (streptactin-Sepharose); not shown: 2xStrepII, C-terminal, kept) RPRERLRVRFTPAVCGLRCIHGPTGSRCTPTCAPRNATSVDSGAPGGAAPGGPGFRAFLCPLICHNGGVCVKPDRCLCPPDFAGKFCQLHSSGARPPAPAMPGLTRSVYTMPLANHRDDEHGVASMVSVHVEHPQEASVVVHQVERVSGPWEEANPEALARAEAAARAEAAAPYTVLAQSAPRED"
–,3.1,0.0041,1.3e+06,2.4,0.0053,2.2e+06,"Ltbp-4L-2xStrep (N-terminal fragment of mouse Ltbp-4L) (domain or fragment, UniProt Q8K4G1-1 25-277, looked up, the first 253 amino acids after the signal peptide (Ser25-Asp277); numbers count on: the long isoform Ltbp-4L; Cloned into a modified pCEP-Pu vector with a 3' 2xStrepII tag through NheI and XhoI; also called N-terminal Ltbp-4L; Ltbp-4L N-terminal fragment; source: HEK 293 EBNA cells, stably expressed, purified from conditioned medium (streptactin-Sepharose); not shown: 2xStrepII, C-terminal, kept) SGSSPSPSPSPIEKAVVPSHQAGVAACHCCLDQTPKSSRCTRASCRVRNCPPAKCTGLEGCLTPTPSVPSPSRSPVEKSQVSLNWQPLTLQEARALLRQRRPRGPWARALLKRRPPHRAPAGQARVLCPLICHNGGVCVKPDRCLCPPDFAGKFCQLHSSGARPPAPAMPGLTRSVYTMPLANHRDDEHGVASMVSVHVEHPQEASVVVHQVERVSGPWEEANPEALARAEAAARAEAAAPYTVLAQSAPRED"
